Reference: IntAct's records for PubMed 30283133

B1: D-alanyl carrier protein (Streptococcus thermophilus (strain ATCC BAA-250 / LMG 18311)), Q5M4V3 (parent)
chain: MDVKAEVIEIIDELFMEDVSDMMDEDLFDAGVLDSMGTVELIVELESRFDIRVPVSEFGRDDWNTANKIVEGVTELRNA
partner: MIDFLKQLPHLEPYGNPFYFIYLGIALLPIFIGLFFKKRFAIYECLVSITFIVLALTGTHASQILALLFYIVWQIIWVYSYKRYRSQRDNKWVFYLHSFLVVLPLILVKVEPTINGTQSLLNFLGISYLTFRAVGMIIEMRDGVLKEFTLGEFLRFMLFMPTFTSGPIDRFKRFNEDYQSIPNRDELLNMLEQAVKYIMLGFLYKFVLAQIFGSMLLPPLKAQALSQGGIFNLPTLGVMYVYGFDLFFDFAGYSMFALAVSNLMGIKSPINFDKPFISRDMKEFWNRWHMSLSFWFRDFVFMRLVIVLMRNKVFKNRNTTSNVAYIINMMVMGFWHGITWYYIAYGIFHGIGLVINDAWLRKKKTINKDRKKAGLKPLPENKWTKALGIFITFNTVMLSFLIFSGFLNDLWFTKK
B2: Teichoic acid D-alanyltransferase (Streptococcus thermophilus (strain ATCC BAA-250 / LMG 18311)), Q5M4V4 (parent)
chain: B1 partner
partner: B1 chain

Variants of: B1
Details: with dltb_strt2 dltB

Row | Variant | effect of a mutation on the interaction
1 | V39D | decreasing interaction
2 | V39R | decreasing interaction

Variants of: B1
Details: with dltb_strt2 dltB, Q5M4V4

Row | Variant | effect of a mutation on the interaction
3 | V39D | decreasing interaction strength
4 | S35A | decreasing interaction

Variants of: B2
Details: with dltc_strt2 dltC

Row | Variant | effect of a mutation on the interaction
5 | V305D;I306D | disrupting interaction
6 | V305D | decreasing interaction

Variants of: B2
Details: with dltc_strt2 dltC, Q5M4V3

Row | Variant | effect of a mutation on the interaction
7 | V305D;I306D | disrupting interaction strength
8 | V305R | decreasing interaction strength
